The target of the experiment is human kisspeptin receptor (KISS1R) (human), Q969F8. As to the kind of experiment: radioligand competition, hKISS1R membranes; legend: A is <10 nM.

The Ki is the dissociation constant of the complex between target and ligand, obtained from inhibition or displacement.

Numbered stars: 1 amine (or outer) side, 2 acyl side, 3 side chain; on linkers, the order of the positions; unused ones are H or OH. Square brackets hold non-standard residues; d marks the D form. Primed or numbered codes have the meaning given here. Side chains are listed from the residue outwards. Ends that are not written are not given here. * marks the point of attachment. X2 = 4‑amino‑1‑((3-fluoro-4-methylbenzyl)glycyl)piperidine‑4‑carboxylic acid, Cc1ccc(CN(CC(=O)N2CCC(N[*:1])(C(=O)[*:2])CC2)[*:3])cc1F; X7 = 4‑amino‑1‑(N-methylcarbamimidoyl)piperidine‑4‑carboxylic acid, CNC(=N)N1CCC(N[*:1])(C(=O)[*:2])CC1; DOTA = O=C(O)CN1CCN(CC(=O)O)CCN(CC(=O)*)CCN(CC(=O)O)CC1; Phe(4-CN) = N#Cc1ccc(C[C@H](N)C(=O)O)cc1; Phe(3-F) = N[C@@H](Cc1cccc(F)c1)C(=O)O; γGlu = O=C(O)[C@H](CCC(=O)[*:2])N[*:1]; 2Nal = N[C@@H](Cc1ccc2ccccc2c1)C(=O)O; εLys = N[C@@H](CCCCN[*:1])C(=O)[*:2]; Adipoyl = O=C(CCCCC(=O)[*:2])[*:1]; Palmitoyl = CCCCCCCCCCCCCCCC(=O)*; 4Pal = N[C@@H](Cc1ccncc1)C(=O)O; NH‑glycol = not defined here; 4Amb = NCc1ccc(C(=O)O)cc1; PEG4′ = not defined here; dCsA = not defined here; Ahx = NCCCCCC(=O)O; azaGly = NNC(=O)O Where only a bound is given, the exact number is not on record here.

Sequence of human kisspeptin receptor (KISS1R) (human), Q969F8 (Q969F8 whole entry): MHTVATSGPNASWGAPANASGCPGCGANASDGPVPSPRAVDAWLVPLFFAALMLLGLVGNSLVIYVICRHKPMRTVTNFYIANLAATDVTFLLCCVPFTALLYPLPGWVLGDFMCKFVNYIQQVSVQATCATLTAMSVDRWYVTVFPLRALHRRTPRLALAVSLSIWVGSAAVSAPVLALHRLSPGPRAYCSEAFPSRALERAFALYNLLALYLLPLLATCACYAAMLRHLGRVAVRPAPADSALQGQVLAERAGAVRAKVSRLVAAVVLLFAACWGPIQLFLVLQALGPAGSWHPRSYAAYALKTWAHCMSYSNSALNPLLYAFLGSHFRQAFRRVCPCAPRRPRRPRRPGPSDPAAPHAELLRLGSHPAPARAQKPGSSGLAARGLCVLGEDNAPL

B1: Compound 117 (peptide)
peptide: [dY][dW]NTF[azaGly]L[X2]W-NH2
modifications: not fully specified (N-terminus); also: N-terminal Lys linked through its epsilon amine to adipoyl, which acylates D-Tyr1
B1 returned a Ki of less than 10 nM.

B2: Compound 106 (peptide)
peptide: {DOTA-Ahx}-[dY]N[dW]NTF[azaGly]L[X2][4Pal]-NH2
SMILES: Cc1ccc(CNCC(=O)N2CCC(NC(=O)[C@H](CC(C)C)NC(=O)NNC(=O)[C@H](Cc3ccccc3)NC(=O)[C@@H](NC(=O)[C@H](CC(N)=O)NC(=O)[C@@H](Cc3c[nH]c4ccccc34)NC(=O)[C@H](CC(N)=O)NC(=O)[C@@H](Cc3ccc(O)cc3)NC(=O)CCCCCNC(=O)CN3CCN(CC(=O)O)CCN(CC(=O)O)CCN(CC(=O)O)CC3)[C@@H](C)O)(C(=O)N[C@@H](Cc3ccncc3)C(N)=O)CC2)cc1F
As for B2, the inhibition constant (Ki) is less than 10 nM.

B3: Compound 91 (peptide)
peptide: {DOTA-Ahx}-[dY][dW]NTF[azaGly]L[X7]W-NH2
SMILES: CNC(=N)N1CCC(NC(=O)[C@H](CC(C)C)NC(=O)NNC(=O)[C@H](Cc2ccccc2)NC(=O)[C@@H](NC(=O)[C@H](CC(N)=O)NC(=O)[C@@H](Cc2c[nH]c3ccccc23)NC(=O)[C@@H](Cc2ccc(O)cc2)NC(=O)CCCCCNC(=O)CN2CCN(CC(=O)O)CCN(CC(=O)O)CCN(CC(=O)O)CC2)[C@@H](C)O)(C(=O)N[C@@H](Cc2c[nH]c3ccccc23)C(N)=O)CC1
In the case of B3, the Ki is less than 10 nM.

B4: Compound 104 (peptide)
peptide: {DOTA-Ahx}-[dY][dW]NTF[azaGly]L[X2][Phe(4-CN)]-NH2
SMILES: Cc1ccc(CNCC(=O)N2CCC(NC(=O)[C@H](CC(C)C)NC(=O)NNC(=O)[C@H](Cc3ccccc3)NC(=O)[C@@H](NC(=O)[C@H](CC(N)=O)NC(=O)[C@@H](Cc3c[nH]c4ccccc34)NC(=O)[C@@H](Cc3ccc(O)cc3)NC(=O)CCCCCNC(=O)CN3CCN(CC(=O)O)CCN(CC(=O)O)CCN(CC(=O)O)CC3)[C@@H](C)O)(C(=O)N[C@@H](Cc3ccc(C#N)cc3)C(N)=O)CC2)cc1F
In the case of B4, the Ki was less than 10 nM.

B5: Compound 108 (peptide)
peptide: {DOTA-Ahx}-[dY][azaGly]NTF[azaGly]L[X2]W-NH2
SMILES: Cc1ccc(CNCC(=O)N2CCC(NC(=O)[C@H](CC(C)C)NC(=O)NNC(=O)[C@H](Cc3ccccc3)NC(=O)[C@@H](NC(=O)[C@H](CC(N)=O)NC(=O)NNC(=O)[C@@H](Cc3ccc(O)cc3)NC(=O)CCCCCNC(=O)CN3CCN(CC(=O)O)CCN(CC(=O)O)CCN(CC(=O)O)CC3)[C@@H](C)O)(C(=O)N[C@@H](Cc3c[nH]c4ccccc34)C(N)=O)CC2)cc1F
Take B5: the inhibition constant Ki is less than 10 nM.

Turning to {DOTA-4Amb-Met-Val-εLys-Adipoyl}-F[azaGly]L[X2]W-NH2 [Compound 132], the Ki is less than 10 nM. Consider {DOTA-dCsA-Ahx}-[dY][dW]NTF[azaGly]L[X2]W-NH2 (not fully specified; reading uncertain) [Compound 115], for which the Ki was less than 10 nM. The value for {DOTA-Ahx}-[dY][dW]NTF[azaGly]L[4‑amino‑1‑((4-methoxybenzyl)glycyl)piperidine‑4‑carboxylic acid]F-NH2 [Compound 140] was less than 10 nM.

B6: Compound 105 (peptide)
peptide: {DOTA-Ahx}-[dY][dW]NTF[azaGly]L[X2][4Pal]-NH2
SMILES: Cc1ccc(CNCC(=O)N2CCC(NC(=O)[C@H](CC(C)C)NC(=O)NNC(=O)[C@H](Cc3ccccc3)NC(=O)[C@@H](NC(=O)[C@H](CC(N)=O)NC(=O)[C@@H](Cc3c[nH]c4ccccc34)NC(=O)[C@@H](Cc3ccc(O)cc3)NC(=O)CCCCCNC(=O)CN3CCN(CC(=O)O)CCN(CC(=O)O)CCN(CC(=O)O)CC3)[C@@H](C)O)(C(=O)N[C@@H](Cc3ccncc3)C(N)=O)CC2)cc1F
As to B6, the Ki is less than 10 nM. For Palmitoyl-[γGlu]K([PEG4′-DOTA])[dY][dW]NTF[azaGly]L[X2]W-NH2 [Compound 119], the inhibition constant Ki is less than 10 nM. The same measure for {HO‑PEG3‑C(:O)}-[dY]K(DOTA)NT[Phe(3-F)][azaGly]L[X2]W-NH2 [Compound 64]: less than 10 nM; for {DOTA-NH‑glycol}-[dY][2Nal]NTF[azaGly]L[X2]W-NH2 (reading uncertain) [Compound 58]: less than 10 nM.

B7: Compound 109 (peptide)
peptide: {DOTA-4Amb}-F[azaGly]L[X2]W-NH2
SMILES: Cc1ccc(CNCC(=O)N2CCC(NC(=O)[C@H](CC(C)C)NC(=O)NNC(=O)[C@H](Cc3ccccc3)NC(=O)c3ccc(CNC(=O)CN4CCN(CC(=O)O)CCN(CC(=O)O)CCN(CC(=O)O)CC4)cc3)(C(=O)N[C@@H](Cc3c[nH]c4ccccc34)C(N)=O)CC2)cc1F
B7 yielded a Ki of less than 10 nM.

B8: Compound 2 (peptide)
peptide: {DOTA-Ahx}-F[azaGly]L[X2]W-NH2
SMILES: Cc1ccc(CNCC(=O)N2CCC(NC(=O)[C@H](CC(C)C)NC(=O)NNC(=O)[C@H](Cc3ccccc3)NC(=O)CCCCCNC(=O)CN3CCN(CC(=O)O)CCN(CC(=O)O)CCN(CC(=O)O)CC3)(C(=O)N[C@@H](Cc3c[nH]c4ccccc34)C(N)=O)CC2)cc1F
In turn, B8 registered a Ki of less than 10 nM.

B9: Compound 113 (peptide)
peptide: {DOTA-Ahx}-[dY][dW]NAF[azaGly]L[X2]L-NH2
SMILES: Cc1ccc(CNCC(=O)N2CCC(NC(=O)[C@H](CC(C)C)NC(=O)NNC(=O)[C@H](Cc3ccccc3)NC(=O)[C@H](C)NC(=O)[C@H](CC(N)=O)NC(=O)[C@@H](Cc3c[nH]c4ccccc34)NC(=O)[C@@H](Cc3ccc(O)cc3)NC(=O)CCCCCNC(=O)CN3CCN(CC(=O)O)CCN(CC(=O)O)CCN(CC(=O)O)CC3)(C(=O)N[C@@H](CC(C)C)C(N)=O)CC2)cc1F
In turn, B9 registered an inhibition constant (Ki) of less than 10 nM.

B10: Compound 107 (peptide)
peptide: {DOTA-Ahx}-[dY][dH][dW]NTF[azaGly]L[X2][4Pal]-NH2
SMILES: Cc1ccc(CNCC(=O)N2CCC(NC(=O)[C@H](CC(C)C)NC(=O)NNC(=O)[C@H](Cc3ccccc3)NC(=O)[C@@H](NC(=O)[C@H](CC(N)=O)NC(=O)[C@@H](Cc3c[nH]c4ccccc34)NC(=O)[C@@H](Cc3c[nH]cn3)NC(=O)[C@@H](Cc3ccc(O)cc3)NC(=O)CCCCCNC(=O)CN3CCN(CC(=O)O)CCN(CC(=O)O)CCN(CC(=O)O)CC3)[C@@H](C)O)(C(=O)N[C@@H](Cc3ccncc3)C(N)=O)CC2)cc1F
For B10, the Ki was less than 10 nM.

Consider {DOTA-Met-Val-εLys-Adipoyl}-[dY][dW]NTF[azaGly]L[X2]W-NH2 [Compound 133], for which the Ki was less than 10 nM.

The values are drawn from patent US20250312499A1, “KISSPEPTIN RECEPTOR (KISS1R) TARGETED THERAPEUTICS AND USES THEREOF” (priority 2024, published 2025).
